Ends that are not written are not given here.
T1: hsFRP1 (human, UniProt Q8N474 32-314)
T1 construct: bought (R&D Systems); also called human sFRP1
T1 sequence (looked up): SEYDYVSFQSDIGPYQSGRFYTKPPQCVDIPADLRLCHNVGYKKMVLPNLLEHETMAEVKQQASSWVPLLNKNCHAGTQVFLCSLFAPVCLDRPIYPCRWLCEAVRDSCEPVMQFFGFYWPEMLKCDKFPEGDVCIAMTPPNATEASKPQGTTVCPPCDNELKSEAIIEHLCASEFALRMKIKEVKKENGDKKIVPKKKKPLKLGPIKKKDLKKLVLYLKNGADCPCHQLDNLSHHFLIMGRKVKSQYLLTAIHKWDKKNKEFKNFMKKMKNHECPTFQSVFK

T2: hsFRP2 (human, UniProt Q96HF1 25-295)
T2 construct: bought (R&D Systems); also called human sFRP2
T2 sequence (looked up): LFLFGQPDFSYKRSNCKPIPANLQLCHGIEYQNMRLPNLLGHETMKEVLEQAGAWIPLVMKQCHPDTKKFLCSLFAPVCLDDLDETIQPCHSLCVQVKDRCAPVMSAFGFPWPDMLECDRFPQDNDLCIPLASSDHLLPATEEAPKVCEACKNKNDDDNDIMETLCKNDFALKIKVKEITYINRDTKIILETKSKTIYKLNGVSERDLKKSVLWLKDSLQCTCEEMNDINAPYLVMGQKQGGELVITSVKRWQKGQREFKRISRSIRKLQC

T3: hsFRP-3 (human, UniProt Q92765 33-325)
T3 construct: bought (R&D Systems); also called human sFRP3
T3 sequence (looked up): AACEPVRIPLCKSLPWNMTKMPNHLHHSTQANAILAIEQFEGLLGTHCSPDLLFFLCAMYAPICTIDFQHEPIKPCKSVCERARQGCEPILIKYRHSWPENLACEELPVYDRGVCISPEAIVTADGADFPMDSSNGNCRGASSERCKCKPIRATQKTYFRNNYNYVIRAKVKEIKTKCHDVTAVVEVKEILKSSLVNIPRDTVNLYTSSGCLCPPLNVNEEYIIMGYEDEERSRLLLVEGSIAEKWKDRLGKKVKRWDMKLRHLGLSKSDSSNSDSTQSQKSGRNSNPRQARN

T4: hsFRP-4 (human, UniProt Q6FHJ7 22-346, limits assumed)
T4 construct: bought (R&D Systems); also called human sFRP4
T4 sequence (looked up): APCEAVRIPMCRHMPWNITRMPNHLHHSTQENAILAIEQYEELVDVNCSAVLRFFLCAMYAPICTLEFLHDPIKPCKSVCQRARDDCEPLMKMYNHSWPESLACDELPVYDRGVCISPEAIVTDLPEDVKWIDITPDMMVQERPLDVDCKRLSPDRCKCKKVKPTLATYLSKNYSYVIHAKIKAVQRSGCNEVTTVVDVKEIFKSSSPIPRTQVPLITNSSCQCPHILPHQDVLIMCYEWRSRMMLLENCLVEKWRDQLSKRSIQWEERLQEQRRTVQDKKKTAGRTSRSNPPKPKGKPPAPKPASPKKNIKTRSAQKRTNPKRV

T5: hsFRP-5 (human, UniProt Q5T4F7 30-317)
T5 construct: bought (R&D Systems); also called human sFRP5
T5 sequence (looked up): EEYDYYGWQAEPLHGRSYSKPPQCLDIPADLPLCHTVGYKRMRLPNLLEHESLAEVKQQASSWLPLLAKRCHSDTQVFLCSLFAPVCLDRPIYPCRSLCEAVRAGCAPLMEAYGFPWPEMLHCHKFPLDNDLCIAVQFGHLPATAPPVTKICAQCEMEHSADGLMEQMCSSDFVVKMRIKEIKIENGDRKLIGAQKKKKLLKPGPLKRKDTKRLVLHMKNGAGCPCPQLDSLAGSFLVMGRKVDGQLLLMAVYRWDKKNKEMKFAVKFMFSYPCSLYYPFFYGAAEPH

T6: hFZD8 CRD-Fc (human, UniProt Q9H461 28-158, limits assumed)
T6 construct: domain: CRD; bought (R&D Systems); not shown: Fc part
T6 sequence (looked up): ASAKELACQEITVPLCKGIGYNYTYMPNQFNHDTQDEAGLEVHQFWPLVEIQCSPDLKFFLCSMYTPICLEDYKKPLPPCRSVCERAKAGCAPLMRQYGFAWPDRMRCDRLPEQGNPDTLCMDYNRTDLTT

T7: hFZD4 CRD-Fc (human, UniProt Q9ULV1 37-180, limits assumed)
T7 construct: domain: CRD; bought (R&D Systems); not shown: Fc part
T7 sequence (looked up): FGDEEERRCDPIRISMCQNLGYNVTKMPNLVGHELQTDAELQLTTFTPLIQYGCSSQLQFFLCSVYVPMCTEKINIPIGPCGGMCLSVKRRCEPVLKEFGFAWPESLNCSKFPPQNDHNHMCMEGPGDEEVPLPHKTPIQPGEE

T8: hFZD5 CRD-Fc (human, UniProt Q13467 27-167, limits assumed)
T8 construct: domain: CRD; bought (R&D Systems); not shown: Fc part
T8 sequence (looked up): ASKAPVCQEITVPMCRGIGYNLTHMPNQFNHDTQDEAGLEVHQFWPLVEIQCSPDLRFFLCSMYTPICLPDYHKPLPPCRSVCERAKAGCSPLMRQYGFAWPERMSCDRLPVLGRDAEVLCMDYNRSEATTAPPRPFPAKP

T9: mFZD9 CRD-Fc (mouse, UniProt Q9R216 24-176, limits assumed)
T9 construct: domain: CRD; bought (R&D Systems); not shown: Fc part
T9 sequence (looked up): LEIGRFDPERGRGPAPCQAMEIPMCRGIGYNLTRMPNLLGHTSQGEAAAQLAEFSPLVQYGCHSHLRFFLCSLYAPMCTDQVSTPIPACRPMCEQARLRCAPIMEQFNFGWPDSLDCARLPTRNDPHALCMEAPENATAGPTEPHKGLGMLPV

T10: hFZD10 CRD-Fc (human, UniProt Q9ULW2 21-161, limits assumed)
T10 construct: domain: CRD; bought (R&D Systems); not shown: Fc part
T10 sequence (looked up): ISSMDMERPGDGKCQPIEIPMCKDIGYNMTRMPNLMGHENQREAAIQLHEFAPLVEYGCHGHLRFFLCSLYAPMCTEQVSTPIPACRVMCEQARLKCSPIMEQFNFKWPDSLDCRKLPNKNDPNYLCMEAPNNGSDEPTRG


What was measured:
hsFRP1 = target: T1, hsFRP1; assay: fluorescence size-exclusion chromatography (FSEC)
hsFRP2 = target: T2, hsFRP2; assay: fluorescence size-exclusion chromatography (FSEC)
hsFRP-3 = target: T3, hsFRP-3; assay: fluorescence size-exclusion chromatography (FSEC)
hsFRP-4 = target: T4, hsFRP-4; assay: fluorescence size-exclusion chromatography (FSEC)
hsFRP-5 = target: T5, hsFRP-5; assay: fluorescence size-exclusion chromatography (FSEC)
hFZD1 CRD-Fc = target: T11, hFZD1 CRD-Fc (human, UniProt Q9UP38 70-250, limits assumed); assay: fluorescence titration, 50 nM labelled peptide vs FZD CRD-Fc dilutions (Monolith NT.115)
T11 construct: domain: CRD; bought (R&D Systems); not shown: Fc part

mFZD2 CRD-Fc [1] = target: T12, mFZD2 CRD-Fc (mouse, UniProt Q9JIP6 29-178, limits assumed); assay: as above
T12 construct: domain: CRD; bought (R&D Systems); not shown: Fc part

mFZD7 CRD-Fc [2] = target: T13, mFZD7 CRD-Fc (mouse, UniProt Q61090 33-185); assay: as above
hFZD7 CRD-Fc [3] = target: T14, hFZD7 CRD-Fc (human, UniProt O75084 33-185); assay: as above
hFZD8 CRD-Fc = target: T6, hFZD8 CRD-Fc; assay: fluorescence titration, 50 nM labelled peptide vs FZD CRD-Fc dilutions (Monolith NT.115); NC = no change
hFZD4 CRD-Fc = target: T7, hFZD4 CRD-Fc; assay: as above
hFZD5 CRD-Fc = target: T8, hFZD5 CRD-Fc; assay: as above
mFZD9 CRD-Fc = target: T9, mFZD9 CRD-Fc; assay: as above
hFZD10 CRD-Fc = target: T10, hFZD10 CRD-Fc; assay: as above
mFZD2 CRD-Fc [4] = target: T12, mFZD2 CRD-Fc; assay: as above
mFZD7 CRD-Fc [5] = target: T13, mFZD7 CRD-Fc; assay: as above
hFZD7 CRD-Fc [6] = target: T14, hFZD7 CRD-Fc; assay: as above

T11 sequence (Q9UP38 70-250 limits assumed): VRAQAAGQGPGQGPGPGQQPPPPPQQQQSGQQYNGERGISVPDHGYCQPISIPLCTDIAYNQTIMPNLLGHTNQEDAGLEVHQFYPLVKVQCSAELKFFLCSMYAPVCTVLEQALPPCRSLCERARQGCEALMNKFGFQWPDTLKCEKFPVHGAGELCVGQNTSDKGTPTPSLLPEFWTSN

Row | EC50 (hFZD1 CRD-Fc) [nM] | EC50 (mFZD2 CRD-Fc [1]) [nM] | EC50 (mFZD7 CRD-Fc [2]) [nM] | EC50 (hFZD7 CRD-Fc [3]) [nM] | binding result (hFZD8 CRD-Fc) | binding result (hFZD4 CRD-Fc) | binding result (hFZD5 CRD-Fc) | binding result (mFZD9 CRD-Fc) | binding result (hFZD10 CRD-Fc) | binding result (mFZD2 CRD-Fc [4]) | binding result (mFZD7 CRD-Fc [5]) | binding result (hFZD7 CRD-Fc [6]) | Binder | binding result (hsFRP1) | binding result (hsFRP2) | binding result (hsFRP-3) | binding result (hsFRP-4) | binding result (hsFRP-5)
1 | 39 | 60 | 67 | 116 | no binding | no binding | no binding | no binding | no binding |  |  |  | LPSDDLEFWCHVMY-NH2 (also: 5-carboxyfluorescein (5FAM) label, site not given here, synthetic) [5FAM-Fz7-21] | no binding (tested: 10 µM peptide, ~250 nM sFRP) | no binding (tested: 10 µM peptide, ~250 nM sFRP) | no binding (tested: 10 µM peptide, ~250 nM sFRP) | no binding (tested: 10 µM peptide, ~250 nM sFRP) | no binding (tested: 10 µM peptide, ~250 nM sFRP)
2 |  |  |  |  | no binding | no binding | no binding | no binding | no binding | no binding | no binding | no binding | LPSDDLEFWSHVMY-NH2 (also: 5-carboxyfluorescein (5FAM) label, site not given here, synthetic control peptide (C10S)) [5FAM-Fz7-21S] | no binding (tested: 10 µM peptide, ~250 nM sFRP) | no binding (tested: 10 µM peptide, ~250 nM sFRP) | no binding (tested: 10 µM peptide, ~250 nM sFRP) | no binding (tested: 10 µM peptide, ~250 nM sFRP) | no binding (tested: 10 µM peptide, ~250 nM sFRP)
